Viability (%) of mouse hepatic parenchymal cells (ALAMAR BLUE fluorescence) data for one substance are collected here from patent US6068841.

The experiment deals with mouse Fas on mouse hepatic parenchymal cells (mouse) (UniProt P25446).

In turn, “anti-mouse Fas antibody (Jo-2; product of Phar-Mingen Co.)” yielded a Viability (%) of mouse hepatic parenchymal cells (ALAMAR BLUE fluorescence) of 99%.
